The values below come from patent US20230088269A1 (ARGENX BVBA, published 2023).

In test [1] the target is T1, recombinant human IL-22R (R&D Systems / Biotechne 2770-LR) (human, UniProt Q8N6P7 16-228).
T1 construct: Bought soluble recombinant protein (said to be 25 kDa); also called hIL22R; IL-22R1
T1 sequence: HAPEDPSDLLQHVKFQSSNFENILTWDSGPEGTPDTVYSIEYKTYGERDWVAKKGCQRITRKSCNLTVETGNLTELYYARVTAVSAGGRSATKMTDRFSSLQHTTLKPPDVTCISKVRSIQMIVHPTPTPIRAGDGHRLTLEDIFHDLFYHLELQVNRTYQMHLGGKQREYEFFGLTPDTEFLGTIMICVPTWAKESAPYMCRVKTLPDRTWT
The test is described as follows: off-rate of Fab fragment; method not stated.

For test [2], the target named is T2, rhIL22R-Fc (rhesus IL22R ECD fused to human Fc) (rhesus monkey, UniProt G7MHN4 16-228).
T2 construct: also called rhesus IL-22R1
T2 sequence: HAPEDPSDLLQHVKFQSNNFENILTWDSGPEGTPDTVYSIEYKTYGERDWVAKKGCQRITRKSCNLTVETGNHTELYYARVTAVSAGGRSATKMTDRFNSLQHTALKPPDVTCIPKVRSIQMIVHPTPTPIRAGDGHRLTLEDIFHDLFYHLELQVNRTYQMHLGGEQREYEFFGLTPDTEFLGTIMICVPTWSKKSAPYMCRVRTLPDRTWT
The test is described as follows: off-rate of Fab fragment; method not stated.

The target of test [3] is T3, recombinant mouse IL22R (monomeric, R&D Systems cat 4248-MR) (mouse, UniProt Q80XZ4 16-230).
T3 construct: extracellular domain; also called murine IL-22R; mIL22R
T3 sequence (looked up): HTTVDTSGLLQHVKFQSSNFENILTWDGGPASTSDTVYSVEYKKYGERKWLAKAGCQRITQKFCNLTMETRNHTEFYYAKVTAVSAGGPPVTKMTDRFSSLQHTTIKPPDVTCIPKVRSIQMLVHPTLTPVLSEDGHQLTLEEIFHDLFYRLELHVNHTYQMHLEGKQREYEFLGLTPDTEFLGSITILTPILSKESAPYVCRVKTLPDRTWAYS
The test is described as follows: ELISA and SPR (Biacore), mAb. How it is done:
After production and purification of the cyIL22R-Fc and the rhIL22R-Fc, the binding specificity to cynomolgus, rhesus and mouse IL22R ECD of all the antibodies from primary selection was tested in ELISA and by SPR (Biacore). Monomeric mouse IL22R was purchased from R&D Systems (cat 4248-MR).
A general note: An ELISA detects its analyte on a solid surface through an enzyme-linked reagent.

Test [4] deals with T1, recombinant human IL-22R (R&D Systems / …). The test is described as follows: SPR (Biacore 3000), IL22R on CM5 chip, IgG1 injected. On the procedure: In addition to the potency on cells, the in vitro binding kinetics and blocking activity of the purified antibodies were measured in Biacore (3000). […] Antibodies tested at a range of concentrations and prepared in HBSEP buffer at pH 7.4 (Biacore) were injected at 30 μl/min for 60 second and washed with HBSEP buffer at pH 7.4 (Biacore) for 10-20 min. The obtained sensograms were analyzed with the BIAevaluation software and kinetics were determined using standard fitting (Langmuir 1:1 with mass transfer).

Test [5] deals with T4, human IL-22R expressed on cells (BW-hIL22R, Baf3-hIL22R/IL20Rb, transfected HEK, primary human skin cells) (human, UniProt Q8N6P7 16-574).
T4 sequence: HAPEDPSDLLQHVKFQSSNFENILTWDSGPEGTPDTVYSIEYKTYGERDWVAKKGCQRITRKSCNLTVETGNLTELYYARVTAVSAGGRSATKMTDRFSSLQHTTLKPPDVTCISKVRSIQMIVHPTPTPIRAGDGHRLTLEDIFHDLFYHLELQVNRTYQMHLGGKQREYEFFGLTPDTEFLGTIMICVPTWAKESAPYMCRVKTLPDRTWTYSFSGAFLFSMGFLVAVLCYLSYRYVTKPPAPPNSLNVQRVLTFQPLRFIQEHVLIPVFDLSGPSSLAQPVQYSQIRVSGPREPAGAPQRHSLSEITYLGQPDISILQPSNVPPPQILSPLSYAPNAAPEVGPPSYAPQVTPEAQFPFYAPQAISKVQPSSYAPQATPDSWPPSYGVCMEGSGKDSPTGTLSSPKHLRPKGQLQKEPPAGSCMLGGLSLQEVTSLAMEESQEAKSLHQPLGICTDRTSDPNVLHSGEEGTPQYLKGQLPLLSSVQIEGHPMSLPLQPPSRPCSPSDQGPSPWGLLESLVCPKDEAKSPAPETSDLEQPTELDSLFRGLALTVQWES
The test is described as follows: cell-based or functional assay.

In test [6] the target is cynoIL22R_ECD-humanTM_humanICD chimera on transfected cells (cynomolgus monkey; human, UniProt Q8N6P7 229-574). Briefly: cell-based or functional assay.
The target of test [7] is rhesus IL22R ECD - human TM - human ICD chimera on transfected HEK cells (rhesus monkey; human, UniProt Q8N6P7 229-574). The test is described as follows: cell-based or functional assay.
Test [8] concerns the target T4, human IL-22R expressed on cells …. Briefly: cell-based or functional assay. The source holds these as a separate data set.
The target in test [9] is T1, recombinant human IL-22R (R&D Systems / …). The test is described as follows: SPR (Biacore), hIL22R on CM5 chip, mAb injected, 1:1 Langmuir. How it is done: The affinity of the 230C9 and 223G5 antibodies was measured using SPR ([…]). In brief, 250RU of human IL22R (Biotechne, 2770-LR) was coated onto a CM5 chip using standard methods (EDC coupling of IL22R at a concentration of 2 μg/ml in acetate buffer pH4.5). Then various concentrations of antibody were injected in HBSEP+ buffer (pH 7.4) for 2 minutes. The binding was monitored also during a 10 min washing (HBSEP+).
(In general: In SPR one partner is held on a chip, and binding of the other changes the refractive index at the surface.)

Test [10] concerns the target T4, human IL-22R expressed on cells …. The test is described as follows: cell-based or functional assay. The source holds these as a separate data set.
For test [11], the target named is T1, recombinant human IL-22R (R&D Systems / …). The test is described as follows: SPR (Biacore), purified Fab.
In test [12] the target is T3, recombinant mouse IL22R (monomeric, R&D …). Briefly: SPR (Biacore), purified Fab.

B1: 223G5 Fab (Fab, V domains shown)
VH: QVQLVESGGGLVQPGGSLRLSCAASGFTFSSYFMSWVRQAPGKGPEWVSGIHISGGITYYTDSVKGRFTISRDNAKNTLYLQMNSLRAEDTAVYYCVTPPGPFKAHYNGAKYWGKGTLVTVSS
VL: QSALTQPPSVSGSPGQSVTISCTGTSSDIGSYNYVSWYQQLPGKAPKLLIYEVNKRSSGVPDRFSGSKSGNTASLTISGLQAEDEADYYCASYRLYADYVFGGGTQLTVL
notes: Germlined variant of 166G8
As a reminder, the koff is a measure of how fast the partners let go of each other. For B1, the results for the koff in test [1] and in test [2] were 0.000529 s⁻¹ and 0.00584 s⁻¹, respectively.

B2: 166G8 mAb (antibody, IgG1, V domains shown)
VH: QVQLVESGGGLVQPGDSLRLSCAASGFTFGSYFMSWVRQAPGKGPEWVSGIHISGGITYYLDSVKGRFTISRDNAKNTLYLQMNNLKPEDTAVYYCVTPPGPFKAHYNGMKYWGKGTLVTVSS
VL: NFMLTQPPSVSGTLGKTVTISCTGTSRDIGDYNYVSWYQQLPGLAPKLLIYKVNTRSSGTPDRFSGSKSGNTASLTISGLQSEDEADYYCASYRLYADYVFGGGTHLTVL
notes: VH family 5; produced as IgG1 with human constant domains
As usually defined, the Kd is a measure of binding affinity in units of concentration. As a reminder, the kon is a measure of how fast the partners come together. B2: the binding result in [3] is “no binding”. In test [4], the dissociation constant (Kd) was 0.022 nM, the koff came out at 0.0002 s⁻¹ and the kon was found to be 9.2e+06 M⁻¹ s⁻¹.

B3: 280.346.TSY (benchmark humanised IL-22R antibody of WO2011/061119) (antibody, V domains shown)
VH: EVQLVESGGGLVQPGGSLRLSCAASGYSITAEYMNWVRQAPGKGLEWIGEINPSTGTTTYNQKFKGRFTISVDQSKNTAYLQMNSLRAEDTAVYYCARFDAYFDYWGQGTLVTVSS
VL: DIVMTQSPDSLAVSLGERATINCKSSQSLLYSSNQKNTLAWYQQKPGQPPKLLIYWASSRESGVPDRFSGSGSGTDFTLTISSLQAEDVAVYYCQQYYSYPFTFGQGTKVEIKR
On to B3, for which, in test [5], the “IC50 blocking IL-22 (nM), BWhIL22R cell line” value was found to be 0.69 nM and the “Relative potency to 280.346.TSY (IL-22, BWhIL22R cell line)” value turned out to be 1 fold. In addition, the “EC50 (nM), STAT3-reporter in HEK cells after human IL22, Cyno ECD” value in [6] turned out to be 0.16 nM. Also, in test [7], the “EC50 (nM), STAT3-reporter in HEK cells after human IL22, Rhesus ECD” value was determined as 0.43 nM. Also, in test [8], the “EC50 (nM), STAT3-reporter in HEK cells after human IL22, Human ECD” value is 0.26 nM. Further, in [4], the Kd worked out at 0.24 nM, the koff stood at 6.4e-05 s⁻¹ and the kon is 270000 M⁻¹ s⁻¹. For the same molecule, in test [9], the equilibrium dissociation constant (Kd) was 0.69 nM, the koff was found to be 0.00034 s⁻¹ and the kon was determined as 490000 M⁻¹ s⁻¹. Further, in test [10], the “IC50 blocking IL-20 (nM), Baf3hIL22R/IL20Rb cell line” value was determined as 1.49 nM.

B4: 170B2 mAb (antibody, V domains shown)
VH: EVQLVESGGGLVQPGGSLRLSCAASGFTFSSSWMYWVRQAPGKGLEFVSVINTRSGITHYVESVKGRFTISTDNAKNTLFLQMNSLKSEDTAVYYCATRIQGLIDYWGQGTQVTVSS
VL: DIVMTQSPSSLSVSLGDRVTITCQASQSIGSVNALAWYQQKPGQSLKLLIHGASRLQTGVPSRFSGSGSGTSFTLAISGVEAEDLATYYCLQDYAWPLTFGQGTKVELK
On to B4, for which, in [4], the equilibrium dissociation constant (Kd) was determined as 0.12 nM, the off-rate constant (koff) is 9.3e-05 s⁻¹ and the kon was found to be 760000 M⁻¹ s⁻¹.

B5: 157A2 Fab (Fab, V domains shown)
VH: QVQLVESGGGLVQPGGSLRLSCAASGFTFSSYDMSWVRQAPGKGLEWVSSIYNDGSNTAYSDSVKGRFTISRDNAKNTLYLQMNSLKSEDTAVYYCAKVGFSGTYYSESWGQGTQVTVSS
VL: NFMLTQPSAVSVSLGQTAKITCQGGYYAHWYQQKPGQAPVLVIYGNNNRPSGIPERFSGSSSGNTATLTISGAQAEDEAEYYCQSGSSSANAVFGGGTHLTVL
notes: VH family 4; purified llama Fab
On to B5, for which, in test [11], the koff was found to be 0.0037 s⁻¹. Besides, the binding result in test [12] is given as “no binding”.

B6: 230C9 Fab (Fab, V domains shown)
VH: QVQLVESGGGLVQPGGSLRLSCAASGFTFSSYDMNWVRQAPGKGLEWVSSIYNDASNTAYSDSVKGRFTISRDNSKNTLYLQMNSLRAEDTAVYYCAKVGFSGTYYSESWGQGTLVTVSS
VL: SYELTQPSSVSVALGQTARITCQGGYYAHWYQQKPGQAPVLVIYGQNNRPSGIPERFSGSGAGNTATLTISRAQAEDEADYYCQSGSSSSNAVFGGGTKLTVL
notes: Germlined variant of 218A7
With B6, the results for the koff in test [1] and in test [2] were 0.000352 s⁻¹ and 0.000436 s⁻¹, respectively.

B7: 218A7 Fab (Fab, V domains shown)
VH: QVQLVESGGGLVQPGGSLRLSCAASGFTFSSYDMSWVRQAPGKGLEWVSSIYNDGSNTAYSDSVKGRFTISRDNAKNTLYLQMNSLKSEDTAVYYCAKVGFSGTYYSESWGQGTQVTVSS
VL: LPVLTQPSAVSVSLGQTARITCQGGYYAHWYQQKPGQAPVLVIYGQNNRPSGIPERFSGSGAGNTATLTISGAQAEDEAEYYCQSGSSSANAVFGGGTKLTVL
notes: Light chain shuffled variant of 157A2
For the molecule B7, the results for the koff in [1] and in test [2] were 0.00081 s⁻¹ and 0.00097 s⁻¹, respectively.

B8: 157A2 mAb (antibody, IgG1, V domains shown)
VH: QVQLVESGGGLVQPGGSLRLSCAASGFTFSSYDMSWVRQAPGKGLEWVSSIYNDGSNTAYSDSVKGRFTISRDNAKNTLYLQMNSLKSEDTAVYYCAKVGFSGTYYSESWGQGTQVTVSS
VL: NFMLTQPSAVSVSLGQTAKITCQGGYYAHWYQQKPGQAPVLVIYGNNNRPSGIPERFSGSSSGNTATLTISGAQAEDEAEYYCQSGSSSANAVFGGGTHLTVL
notes: VH family 4; produced as IgG1 with human constant domains
For B8, the binding result in test [3] is “no binding”. In addition, in [4], the Kd worked out at 2.8 nM, the koff came out at 0.0011 s⁻¹ and the kon was 390000 M⁻¹ s⁻¹.
